Columns and labels:
[1] = target: ALys amyloid fibrils extracted from human amyloidotic tissue (human) (UniProt P61626); test: 125I-SAP binding to fibrils; ALys fibrils at 0.05 A280-A320 units/ml; mean of 2 replicates
[2] = target: ALys amyloid fibrils extracted from human amyloidotic tissue (human) (UniProt P61626); test: 125I-SAP binding to fibrils; ALys fibrils at 0.2 A280-A320 units/ml; mean of 2 replicates
[3] = target: ALys amyloid fibrils extracted from human amyloidotic tissue (human) (UniProt P61626); test: 125I-SAP binding to fibrils; ALys fibrils at 0.002 A280-A320 units/ml; mean of 2 replicates
[4] = target: ALys amyloid fibrils extracted from human amyloidotic tissue (human) (UniProt P61626); test: 125I-SAP binding to fibrils; ALys fibrils at 0.02 A280-A320 units/ml; mean of 2 replicates

human serum amyloid P component (SAP), 125I-labelled (from UniProt P02743 20-223)
% ^125I-SAP counts bound [1]: 72% | % ^125I-SAP counts bound [2]: 79% | % ^125I-SAP counts bound [3]: 7% | % ^125I-SAP counts bound [4]: 45%

Reference: patent US20100047237A1
